The values that follow come from patent EP4803541A1 (Changchun Genescience Pharmaceutical Co., Ltd., dated 2026).

B1: M45 (First round) (VHH)
VHH: QVQLVESGGGLAQAGGSLRLSCAVSGMPEFARAMGWFRQAPGKERELLAAIEGIGATTYYADSVKGRFTISRDDAANTVLLQMNSLKPDDTAVYYCAAAFSVTIPTRARHWVDWGPGTLVTVSS
B2: WT (with tag), unmodified GH single-domain antibody molecule (VHH)
VHH: B1 VHH
B3: M67 (Second round) (VHH)
VHH: B1 VHH with A14P, P116Q
notes: Entry already carries A15P; P105Q); tail DDDDK-SGGGGS-HHHHHH
B4: M68 (Second round) (VHH)
VHH: B1 VHH with A14P, R19T
notes: Entry already carries A15P; R19T); tail DDDDK-SGGGGS-HHHHHH
B5: M74 (Second round) (VHH)
VHH: B1 VHH with A56D, R109E
notes: Entry already carries A57D; G134R; R100eE); tail DDDDK-SGGRGS-HHHHHH
B6: M11 (First round) (VHH)
VHH: B1 VHH with P116Q
B7: M33 (First round) (VHH)
VHH: B1 VHH with A56D
B8: M24 (First round) (VHH)
VHH: B1 VHH with W111F
B9: M28 (First round) (VHH)
VHH: B1 VHH with R19T
B10: M22 (First round) (VHH)
VHH: B1 VHH with L11K
B11: M34 (First round) (VHH)
VHH: B1 VHH with N77S
B12: M64 (Second round) (VHH)
VHH: B1 VHH with A14P
notes: Entry already carries A15P; tail DDDDK-SGGRGS-HHHHHH
B13: M69 (Second round) (VHH)
VHH: B1 VHH with P28T
notes: Entry already carries P29T; tail DDDDK-SGGRGS-HHHHHH
B14: M53 (Second round) (VHH)
VHH: B1 VHH with A56D, R109E
notes: Entry already carries A57D; R100eE); tail DDDDK-SGGGGS-HHHHHH
B15: M83 (Second round) (VHH)
VHH: B1 VHH with A56D, R109E, W111F, P116Q
notes: Entry already carries A57D; P117Q; R110E; R100eE; W100gF; P105Q); tail DDDDK-SGGGGS-HHHHHH
B16: M75 (Second round) (VHH)
VHH: B1 VHH with A56D, R109E, D113Y
notes: Entry already carries A57D; R110E; R100eE; D102Y); tail DDDDK-SGGGGS-HHHHHH
B17: M88 (Second round) (VHH)
VHH: B1 VHH with L48V, A56D, R109E
notes: Entry already carries A57D; G134R; R110E; A55D; R100eE); tail DDDDK-SGGRGS-HHHHHH
B18: M77 (Second round) (VHH)
VHH: B1 VHH with A56D, R109E, W111F
notes: Entry already carries A57D; R110E; R100eE; W100gF); tail DDDDK-SGGGGS-HHHHHH
B19: M76 (Second round) (VHH)
VHH: B1 VHH with A56D, W111F
notes: Entry already carries A57D; G134R; W100gF); tail DDDDK-SGGRGS-HHHHHH
B20: M59 (Second round) (VHH)
VHH: B1 VHH with P28T, A56D
notes: Entry already carries A57D; A55D); tail DDDDK-SGGGGS-HHHHHH
B21: M72 (Second round) (VHH)
VHH: B1 VHH with A56D, W111F, D113Y
notes: Entry already carries A57D; D114Y; W100gF; D102Y); tail DDDDK-SGGGGS-HHHHHH
B22: M79 (Second round) (VHH)
VHH: B1 VHH with L48V, A56D, R109E
notes: Entry already carries A57D; R110E; A55D; R100eE); tail DDDDK-SGGGGS-HHHHHH
B23: M71 (Second round) (VHH)
VHH: B1 VHH with A56D, R109E, P116Q
notes: Entry already carries A57D; P117Q; R100eE; P105Q); tail DDDDK-SGGGGS-HHHHHH
B24: M81 (Second round) (VHH)
VHH: B1 VHH with A56D, R109E, P116Q
notes: Entry already carries A57D; G134R; P117Q; R100eE; P105Q); tail DDDDK-SGGRGS-HHHHHH
B25: M89 (Second round) (VHH)
VHH: B1 VHH with A56D, R109E, W111F
notes: Entry already carries A57D; G134R; R110E; R100eE; W100gF); tail DDDDK-SGGRGS-HHHHHH
B26: M66 (Second round) (VHH)
VHH: B1 VHH with A14P, P28T
notes: Entry already carries P29T; P28T); tail DDDDK-SGGGGS-HHHHHH
B27: M82 (Second round) (VHH)
VHH: B1 VHH with A56D, R109E, D113Y
notes: Entry already carries A57D; G134R; R110E; R100eE; D102Y); tail DDDDK-SGGRGS-HHHHHH
B28: M70 (Second round) (VHH)
VHH: B1 VHH with A14P, R109E
notes: Entry already carries A15P; R100eE); tail DDDDK-SGGGGS-HHHHHH

Numbering of substitutions follows the chain as printed. Numbers in names are those of the source. A value given as a limit tells only on which side of the number the result lay.

One test addresses GH (GH stock solution) (UniProt P01241). Kind of test: affinity chromatography, VHH-conjugated medium loaded with GH stock solution; medium in 0.5M NaOH 0h.
Turning to B1, the dynamic binding capacity at 10% breakthrough is 18.2.
Take B2: the dynamic binding capacity at 10% breakthrough is 22.3.
B3 yielded a dynamic binding capacity at 10% breakthrough of 15.9.
In turn, B4 had a dynamic binding capacity at 10% breakthrough of 15.3.
Still for that read-out and setting: next, B5: 14.7.

The target is the same in another test. The test is described as follows: affinity chromatography, VHH-conjugated medium loaded with GH stock solution; medium in 0.1M NaOH 0h.
B1: the dynamic binding capacity at 10% breakthrough was found to be 18.2.
In the case of B2, the dynamic binding capacity at 10% breakthrough worked out at 22.3.
The molecule B3 had a dynamic binding capacity at 10% breakthrough of 15.9.
The same measure, in the same setting: then B4, with 15.9.
With B5, the dynamic binding capacity at 10% breakthrough is 15.

The target is the same in another test. Kind of test: affinity chromatography, VHH-conjugated medium loaded with GH stock solution; medium in 0.1M NaOH 32h.
For the molecule B1, the dynamic binding capacity at 10% breakthrough worked out at 16.2.
Same read-out and setting: next, B2: 14.7.
Still for that read-out and setting: then B3, with 14.9; and B4, with 15.4; and B5, with 15.4.

The target in a further test is rhGH protein (UniProt: P01241) (human) (UniProt P01241). The test is described as follows: ELISA on coated rhGH, anti-6*His HRP; sample after 0.5M NaOH 24h, against WT. Also on record: unit not given beside the values.
rhGH protein (UniProt: P01241) (human) (UniProt P01241), sequence (P01241 27-217 limits assumed, one chain of several): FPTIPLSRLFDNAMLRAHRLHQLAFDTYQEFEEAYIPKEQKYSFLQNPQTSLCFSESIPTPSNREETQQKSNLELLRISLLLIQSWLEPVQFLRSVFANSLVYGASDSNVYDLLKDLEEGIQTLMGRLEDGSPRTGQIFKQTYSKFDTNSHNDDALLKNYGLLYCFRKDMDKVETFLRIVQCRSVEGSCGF
As for B6, the EC50 against that of the WT after 0.5M alkali (% higher than WT) stood at 50.
On the same count and under the same terms, then B7, with 50; and B8, with 50.
On to B1, for which the EC50 against that of the WT after 0.5M alkali (% higher than WT) stood at 50.
Still for that read-out and setting: next, B9: 50.
Same read-out and setting: then B10, with 50; and B11, with 50; and B12, with 50.
Still for that read-out and setting: then B13, with 50.

In the next test the target is T1, rhGH protein (UniProt: P01241) (human, UniProt P01241 27-217).
T1 construct: Coated at 5 ug/ml in the ELISA; also called human growth hormone
T1 sequence (P01241 27-217 limits assumed, one chain of several): as above
The test is described as follows: ELISA on coated rhGH; sample after 0.5M NaOH 24h.
In the case of B14, the binding result was “binds”.
For B15, the binding result is on record as “binds”.
Still for that read-out and setting: then B16, with “binds”.
On the same count and under the same terms, next, B17: “binds”; B18: “binds”; B19: “binds”.
For the molecule B20, the binding result was “binds”.
Consider B3, for which the binding result is “binds”.
In the case of B21, the binding result is on record as “binds”.
On the same count and under the same terms, next, B12: “binds”; B22: “binds”; B23: “binds”.
For the molecule B4, the binding result was “binds”.
Still for that read-out and setting: then B13, with “binds”; and B5, with “binds”; and B24, with “binds”.
Same read-out and setting: next, B25: “binds”.
Same read-out and setting: next, B26: “binds”.
In the case of B27, the binding result is “binds”.
Still for that read-out and setting: next, B28: “binds”.

A further test deals with GH (GH stock solution) (UniProt P01241). The test is described as follows: affinity chromatography, VHH-conjugated medium loaded with GH stock solution; medium in 0.1M NaOH 24h.
GH (GH stock solution), sequence (P01241 27-217 limits assumed): as the sequence (P01241 27-217 limits assumed, one chain of several) above
B1 returned a dynamic binding capacity at 10% breakthrough of 17.4.
Same read-out and setting: then B2, with 16.2.
In turn, B3 had a dynamic binding capacity at 10% breakthrough of 16.2.
As for B4, the dynamic binding capacity at 10% breakthrough stood at 16.2.
As to B5, the dynamic binding capacity at 10% breakthrough was determined as 15.8.

For the next test the target is unchanged. Kind of test: affinity chromatography, VHH-conjugated medium loaded with GH stock solution; medium in 0.5M NaOH 6h.
On to B1, for which the dynamic binding capacity at 10% breakthrough amounted to 7.6.
As to B2, the dynamic binding capacity at 10% breakthrough stood at 5.78.
On the same count and under the same terms, then B3, with 10.2.
Regarding B4, the dynamic binding capacity at 10% breakthrough came to 12.2.
The molecule B5 yielded a dynamic binding capacity at 10% breakthrough of 13.2.

For a further test the target is unchanged. The test is described as follows: loss of dynamic binding capacity of the conjugated medium for GH after 0.5M NaOH 24h.
In the case of B2, the residual DBC (a decrease of DBC) stood at 85%.
In turn, B5 showed a residual DBC (a decrease of DBC) of less than 49%.

A further test shares this target. The test is described as follows: affinity chromatography, VHH-conjugated medium loaded with GH stock solution; medium in 0.5M NaOH 24h.
B1 showed a dynamic binding capacity at 10% breakthrough of 4.29.
As for B2, the dynamic binding capacity at 10% breakthrough was found to be 3.39.
B3 showed a dynamic binding capacity at 10% breakthrough of 4.23.
Same read-out and setting: next, B4: 5.41; B5: 8.24.

A further test shares this target. Kind of test: loss of dynamic binding capacity of the conjugated medium for GH after 0.1M NaOH 32h.
For the molecule B2, the DBC decay rate amounted to 35%.
The molecule B5 displayed a DBC decay rate of less than 6%.
